Results: patent US20250270566A1, “DUAL-SPECIFICITY RNA ATPAMERS FOR REGULATING O-GLCNACYLATION” (University of Georgia Research Foundation, Inc., published 2025)

Experiments:
EP300 = target: T1, EP300 (UniProt Q09472 2-2414); experiment: PLA with antibodies to β-catenin and EP300, confocal images of HEK293T cells, -Wnt, T1 • bc339 or 3JB8F+12
T1 construct: Endogenous protein in HEK293T cells
Experimental: FIGS. 13A to 13P show O-GlcNAc regulates β-catenin's interactions with other epigenetic modifiers and β-TrCP. FIGS. 13A to 13F contain confocal images of PLA on HEK293T cells. Cells were transfected with plasmids encoding the control aptamers (T1·bc339) or a DS aptamer (3JB8F+12), and stimulated with regular (−Wnt) or Wnt3A-conditioned (+Wnt) medium. PLA was performed with antibodies targeting β-catenin and EP300, KAT5, or β-TrCP. FIGS. 13G and 13H contain confocal images of the negative control experiments of PLA. Cells were treated with regular (−Wnt) or Wnt3A-conditioned (+Wnt) medium. PLA was performed with the antibody targeting β-catenin and normal rabbit IgG. FIGS. 13I to 13P show quantification of FIGS. 13A to 13H. Nuclear or total PLA puncta were counted and normalized to the number of nuclei in each view. N=10 (I to N) or N=5 (O to P). Student's t-test was performed. Data are represented as mean±SD. **, p<0.01; ***, p<0.001. T1·bc339—Individual T1 and bc339 aptamers (control). 3JB8F+12—A DS aptamer (T1-linker-bc339) with a folded linker.

KAT2A (GCN5) = target: T2, KAT2A (GCN5) (UniProt Q92830 2-837); experiment: PLA with antibodies to β-catenin and KAT2A, confocal images of HEK293T cells, -Wnt, T1 • bc339 or 3JB8F+12
T2 construct: Endogenous protein in HEK293T cells; also called KAT2A/GCN5L2
T2 sequence (Q92830 2-837 limits assumed): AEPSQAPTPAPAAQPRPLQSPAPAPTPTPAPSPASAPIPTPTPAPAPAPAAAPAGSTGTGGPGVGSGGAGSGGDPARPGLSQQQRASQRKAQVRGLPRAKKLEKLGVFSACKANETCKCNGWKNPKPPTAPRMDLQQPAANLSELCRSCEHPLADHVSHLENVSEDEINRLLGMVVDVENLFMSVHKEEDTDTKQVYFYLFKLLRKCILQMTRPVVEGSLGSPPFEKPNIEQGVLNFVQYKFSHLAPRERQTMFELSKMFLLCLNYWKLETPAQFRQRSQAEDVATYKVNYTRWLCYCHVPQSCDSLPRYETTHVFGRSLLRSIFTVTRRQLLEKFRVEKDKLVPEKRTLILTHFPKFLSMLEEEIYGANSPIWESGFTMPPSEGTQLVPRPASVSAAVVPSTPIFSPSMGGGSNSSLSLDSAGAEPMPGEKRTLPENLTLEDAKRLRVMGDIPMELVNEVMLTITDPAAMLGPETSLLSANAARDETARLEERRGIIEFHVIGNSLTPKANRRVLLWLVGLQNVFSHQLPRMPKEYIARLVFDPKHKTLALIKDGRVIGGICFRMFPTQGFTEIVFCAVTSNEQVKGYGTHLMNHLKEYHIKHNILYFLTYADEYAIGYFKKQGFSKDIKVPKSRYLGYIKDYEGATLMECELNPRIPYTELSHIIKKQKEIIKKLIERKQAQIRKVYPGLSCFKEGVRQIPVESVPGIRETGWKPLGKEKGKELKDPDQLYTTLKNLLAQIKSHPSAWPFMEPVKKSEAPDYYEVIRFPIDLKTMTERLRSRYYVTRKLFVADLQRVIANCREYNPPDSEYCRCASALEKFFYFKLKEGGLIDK
Experimental: FIGS. 12A to 12P show O-GlcNAc regulates β-catenin's interactions with KAT2A. FIGS. 12A to 12H contain confocal images of Proximity Ligation Assay (PLA) on HEK293T cells. Cells were transfected with plasmids encoding the control aptamers (T1·bc339) or a DS aptamer (3JB8F+12 or 3JB8R+12) and stimulated with regular (−Wnt) or Wnt3A-conditioned (+Wnt) medium. PLA was performed with antibodies targeting […] and KAT2A or H3K9ac. In FIGS. 12C and 12D, cells were treated with 50 μM Ac5S for 20 hr. FIGS. 12I to 12P show quantification of FIGS. 12A to 12H. PLA puncta in nucleus were counted and normalized to the number of nuclei in each view. Student's t-test was performed. Data are represented as mean±SD. ns, p≥0.05; ***, p<0.001; ****, p<0.0001. N=10. T1·bc339—Individual T1 and bc339 aptamers (control). 3JB8F+12/R+12—DS aptamers (T1-linker-bc339) with folded linkers.

[1] = target: T3, ncOGT full-length (OGT-FL, nucleocytoplasmic O-GlcNAc transferase) (UniProt O15294 O15294:1-1046); experiment: SPR; ABB (20 mM Tris-HCl, 150 mM NaCl, 5 mM MgCl2, 0.05% Tween-20, pH 7.5), 25 C, 1:1 model; settings: tags: His tag (Ni-NTA purified, pET24a-ncOGT-FL, E. coli)
T3 sequence: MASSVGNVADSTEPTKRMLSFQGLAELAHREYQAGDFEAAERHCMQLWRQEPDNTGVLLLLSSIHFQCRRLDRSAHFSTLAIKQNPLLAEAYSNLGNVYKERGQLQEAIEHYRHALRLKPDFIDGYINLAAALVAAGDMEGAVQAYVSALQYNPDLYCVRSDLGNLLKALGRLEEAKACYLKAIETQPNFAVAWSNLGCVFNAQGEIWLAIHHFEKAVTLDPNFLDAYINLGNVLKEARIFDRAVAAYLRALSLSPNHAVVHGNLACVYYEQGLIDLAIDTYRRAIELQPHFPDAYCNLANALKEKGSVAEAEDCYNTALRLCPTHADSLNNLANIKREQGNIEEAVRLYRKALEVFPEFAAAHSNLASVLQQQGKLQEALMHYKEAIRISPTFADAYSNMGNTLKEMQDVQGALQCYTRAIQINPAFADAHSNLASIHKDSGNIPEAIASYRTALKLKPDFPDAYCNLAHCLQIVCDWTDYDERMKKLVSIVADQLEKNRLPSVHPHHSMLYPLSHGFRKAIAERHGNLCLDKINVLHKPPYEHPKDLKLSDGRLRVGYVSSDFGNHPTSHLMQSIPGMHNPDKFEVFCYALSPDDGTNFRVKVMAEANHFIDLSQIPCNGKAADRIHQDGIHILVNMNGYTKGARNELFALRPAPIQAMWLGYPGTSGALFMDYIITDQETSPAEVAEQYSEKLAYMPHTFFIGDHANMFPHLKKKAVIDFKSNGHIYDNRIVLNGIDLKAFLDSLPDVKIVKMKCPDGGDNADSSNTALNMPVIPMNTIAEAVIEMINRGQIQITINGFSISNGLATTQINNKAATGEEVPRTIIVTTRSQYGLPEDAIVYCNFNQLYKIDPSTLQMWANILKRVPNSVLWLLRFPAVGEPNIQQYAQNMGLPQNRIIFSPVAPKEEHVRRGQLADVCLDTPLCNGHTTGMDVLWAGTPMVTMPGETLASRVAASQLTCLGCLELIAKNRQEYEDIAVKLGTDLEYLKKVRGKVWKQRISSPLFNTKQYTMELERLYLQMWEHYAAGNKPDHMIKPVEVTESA
Experimental: T1 was included in the indicated reactions (orange) from 2 μM to 7.8 nM in 2× serial dilution. Data were normalized to the positive control reaction (red). One-way ANOVA test was performed. […] OGT was immunoprecipitated from lysate of T1-expressing cells, using buffers with Mg²⁺ (left) or without Mg²⁺ (right). Then the OGT-bound T1 was quantified by RT-qPCR. Data were normalized to the IgG groups. One-way ANOVA test was performed. RT—Reverse Transcriptase. N=3. […] N=3. […] Cells stably expressing T1 were treated with ActD for the indicated periods. Abundance of T1 was quantified by RT-qPCR (left) and normalized to that of 18S rRNA (right) and initial timepoint (T=0). Data were fitted to a one-phase decay model (curve). N=3. Data are represented as mean±SD. ns, p≥0.05; ****, p<0.0001.
For SPR, Multi Cycle Kinetics was performed according to (Chang, A. L., et al. Methods Enzymol 2014 549:451-466) on a Biacore T100 (GE Healthcare/Cytiva) instrument at 25° C. In assay preparation, an amine-modified T24 DNA linker (NH2-T24) was immobilized to approximately 100 RU in both reference and test flow cells on a sensorchip PEG (GE Healthcare/Cytiva 29239810), using the Amine Coupling Kit (GE Healthcare/Cytiva BR100050). […] Data was analyzed using the Biacore Evaluation Software (GE Healthcare/Cytiva), where the overlaid sensorgrams were fitted into a 1:1 binding model.

[2] = target: T3, ncOGT full-length (OGT-FL, …); experiment: FP filter; radiolabeled dot blot (nitrocellulose filter), ABB with 5 mM MgCl2, 37 C, yeast tRNA and BSA competitors; settings: tags: His tag (Ni-NTA purified, pET24a-ncOGT-FL, E. coli); label: 5'-32P (dot blot)
Experimental: Radiolabeled RNA was diluted in ABB, denatured at 65° C. for 5 min and re-folded at room temperature for 5 min. Then 100 nM of RNA was incubated with multiple concentrations (see Figure legends) of purified ncOGT at 37° C. for 30 min. The volume of each assay was 50 μL. 1 μM yeast tRNA (Invitrogen AM7119) and 50 μg/mL Bovine Serum Albumin (BSA, NEB B9001S) were included as non-specific competitors. After incubation, the reactions were filtered sequentially through a nitrocellulose membrane (Amersham 10600042) and a Nylon membrane (Invitrogen AM10102), on a Bio-Dot Microfiltration Apparatus (Bio-Rad 170-6545). Membranes were washed with 100 μL ABB to remove unbound RNA. Washed membranes were air-dried and exposed to a film (Amersham 28906836) for 2 hr. The film was developed and scanned, and the image was analyzed with Fiji (Schindelin, J., et al. Nat Methods 2012 9:676-682). Quantified data was fitted into a Michaelis-Menten model using GraphPad Prism.

β-catenin = β-catenin (UniProt P35222 P35222:1-781); experiment: SPR; intracellular buffer (20 mM HEPES, 110 mM KCl, 10 mM NaCl, 0.4 mM MgCl2, 5 mM KH2PO4, pH 7.2), 25 C; settings: tags: His tag (Ni-NTA purified, pET28a-β-catenin, E. coli)
Experimental: Total PLA puncta was counted and normalized to the number of nuclei in each view. Student's t-test was performed. N=8. […] Nucleus and cytoplasm of cells stably expressing 3JB8F+12 was isolated, and RNA in each fraction was quantified by RT-qPCR. RNA abundances were normalized to that of 3JB8F+12 in whole cell lysate (purple bar in upper panel). NEAT1 is a nuclear RNA control, and GAPDH is a cytoplasmic RNA control. Cyt.—Cytoplasm. Nuc.—Nucleus. W.C.—Whole Cell. N=4. T1·bc339—Individual T1 and bc339 aptamers (control). NL8F50/70/100—DS aptamers (T1-linker-bc339) with flexible linkers of 50/70/100 nt. 3JB8F—DS aptamers (T1-linker-bc339) with folded linkers. +4/+12, serial additions (bp) into the folded linker. Quantitated data are normalized to the control group (T1·bc339). Aptamers were expressed from plasmids, and One-way ANOVA test was performed unless indicated. Data are represented as mean±SD. ns, p≥0.05; *, p<0.05; **, p<0.01; ***, p<0.001; ****, p<0.0001.
For SPR, Multi Cycle Kinetics was performed according to (Chang, A. L., et al. Methods Enzymol 2014 549:451-466) on a Biacore T100 (GE Healthcare/Cytiva) instrument at 25° C. […] Data was analyzed using the Biacore Evaluation Software (GE Healthcare/Cytiva), where the overlaid sensorgrams were fitted into a 1:1 binding model.

T1 sequence (Q09472 2-2414 limits assumed): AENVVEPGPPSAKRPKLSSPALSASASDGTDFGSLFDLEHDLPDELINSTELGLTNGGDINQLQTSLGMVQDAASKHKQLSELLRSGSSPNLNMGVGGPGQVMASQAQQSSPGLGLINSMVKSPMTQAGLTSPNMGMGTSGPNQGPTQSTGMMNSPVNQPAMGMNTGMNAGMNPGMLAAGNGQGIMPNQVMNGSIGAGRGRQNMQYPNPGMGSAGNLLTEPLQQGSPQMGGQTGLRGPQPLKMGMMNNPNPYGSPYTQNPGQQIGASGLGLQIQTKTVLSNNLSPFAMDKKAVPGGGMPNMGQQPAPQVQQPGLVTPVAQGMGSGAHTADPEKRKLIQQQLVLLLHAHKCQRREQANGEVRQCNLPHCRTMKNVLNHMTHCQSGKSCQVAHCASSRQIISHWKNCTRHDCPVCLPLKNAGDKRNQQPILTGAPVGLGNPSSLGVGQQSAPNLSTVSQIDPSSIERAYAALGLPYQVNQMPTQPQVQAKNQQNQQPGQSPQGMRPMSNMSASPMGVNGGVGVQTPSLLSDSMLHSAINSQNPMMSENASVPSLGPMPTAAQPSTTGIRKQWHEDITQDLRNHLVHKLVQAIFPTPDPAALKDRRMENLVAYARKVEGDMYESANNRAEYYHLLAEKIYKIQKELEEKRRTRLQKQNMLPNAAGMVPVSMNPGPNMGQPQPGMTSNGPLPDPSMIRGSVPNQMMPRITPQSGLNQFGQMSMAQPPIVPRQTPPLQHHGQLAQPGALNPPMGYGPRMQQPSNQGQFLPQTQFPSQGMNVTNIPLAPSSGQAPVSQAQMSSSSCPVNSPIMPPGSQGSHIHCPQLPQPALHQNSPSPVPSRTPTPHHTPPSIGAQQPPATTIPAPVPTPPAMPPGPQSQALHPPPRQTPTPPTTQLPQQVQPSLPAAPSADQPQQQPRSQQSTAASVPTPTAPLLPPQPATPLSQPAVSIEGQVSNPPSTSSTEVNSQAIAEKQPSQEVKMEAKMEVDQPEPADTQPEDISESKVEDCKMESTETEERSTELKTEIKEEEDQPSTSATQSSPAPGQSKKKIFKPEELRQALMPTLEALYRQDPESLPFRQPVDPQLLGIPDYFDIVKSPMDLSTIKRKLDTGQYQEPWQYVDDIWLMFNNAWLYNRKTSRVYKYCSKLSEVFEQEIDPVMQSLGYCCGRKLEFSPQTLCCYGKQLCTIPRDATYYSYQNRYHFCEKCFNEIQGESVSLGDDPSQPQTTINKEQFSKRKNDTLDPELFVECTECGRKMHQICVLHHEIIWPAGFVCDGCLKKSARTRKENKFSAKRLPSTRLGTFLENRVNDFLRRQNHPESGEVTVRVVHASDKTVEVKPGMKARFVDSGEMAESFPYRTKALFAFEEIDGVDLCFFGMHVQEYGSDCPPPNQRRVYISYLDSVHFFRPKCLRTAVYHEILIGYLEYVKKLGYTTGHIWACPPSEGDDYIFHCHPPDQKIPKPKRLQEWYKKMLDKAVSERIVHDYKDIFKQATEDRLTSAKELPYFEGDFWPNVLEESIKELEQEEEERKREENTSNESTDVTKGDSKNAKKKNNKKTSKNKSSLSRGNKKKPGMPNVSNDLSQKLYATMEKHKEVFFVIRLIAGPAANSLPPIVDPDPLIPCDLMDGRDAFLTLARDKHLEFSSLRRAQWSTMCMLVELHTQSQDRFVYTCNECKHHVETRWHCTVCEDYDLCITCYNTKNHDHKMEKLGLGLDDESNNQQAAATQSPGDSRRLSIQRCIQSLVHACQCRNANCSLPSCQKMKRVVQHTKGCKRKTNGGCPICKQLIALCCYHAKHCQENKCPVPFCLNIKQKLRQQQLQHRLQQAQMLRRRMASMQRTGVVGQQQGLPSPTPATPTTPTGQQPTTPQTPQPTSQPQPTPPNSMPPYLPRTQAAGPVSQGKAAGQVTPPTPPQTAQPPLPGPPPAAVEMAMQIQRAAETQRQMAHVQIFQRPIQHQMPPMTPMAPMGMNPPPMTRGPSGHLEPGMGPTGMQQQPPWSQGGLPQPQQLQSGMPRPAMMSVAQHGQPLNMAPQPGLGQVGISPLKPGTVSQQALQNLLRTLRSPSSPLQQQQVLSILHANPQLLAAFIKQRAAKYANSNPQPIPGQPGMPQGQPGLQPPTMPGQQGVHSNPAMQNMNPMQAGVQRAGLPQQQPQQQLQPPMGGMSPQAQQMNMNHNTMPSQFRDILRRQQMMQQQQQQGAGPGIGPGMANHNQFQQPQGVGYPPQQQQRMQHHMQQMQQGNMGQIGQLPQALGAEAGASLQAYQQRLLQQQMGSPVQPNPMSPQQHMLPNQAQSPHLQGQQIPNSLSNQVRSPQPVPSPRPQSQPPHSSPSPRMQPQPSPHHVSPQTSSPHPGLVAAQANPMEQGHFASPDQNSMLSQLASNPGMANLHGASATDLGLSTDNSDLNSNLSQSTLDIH

B1: β-catenin (endogenous, in HEK293T cells) (other, UniProt P35222 2-781, looked up)
chain: ATQADLMELDMAMEPDRKAAVSHWQQQSYLDSGIHSGATTTAPSLSGKGNPEEEDVDTSQVLYEWEQGFSQSFTQEQVADIDGQYAMTRAQRVRAAMFPETLDEGMQIPSTQFDAAHPTNVQRLAEPSQMLKHAVVNLINYQDDAELATRAIPELTKLLNDEDQVVVNKAAVMVHQLSKKEASRHAIMRSPQMVSAIVRTMQNTNDVETARCTAGTLHNLSHHREGLLAIFKSGGIPALVKMLGSPVDSVLFYAITTLHNLLLHQEGAKMAVRLAGGLQKMVALLNKTNVKFLAITTDCLQILAYGNQESKLIILASGGPQALVNIMRTYTYEKLLWTTSRVLKVLSVCSSNKPAIVEAGGMQALGLHLTDPSQRLVQNCLWTLRNLSDAATKQEGMEGLLGTLVQLLGSDDINVVTCAAGILSNLTCNNYKNKMMVCQVGGIEALVRTVLRAGDREDITEPAICALRHLTSRHQEAEMAQNAVRLHYGLPVVVKLLHPPSHWPLIKATVGLIRNLALCPANHAPLREQGAIPRLVQLLVRAHQDTQRRTSMGGTQQQFVEGVRMEEIVEGCTGALHILARDVHNRIVIRGLNTIPLFVQLLYSPIENIQRVAAGVLCELAQDKEAAEAIEAEGATAPLTELLHSRNEGVATYAAAVLFRMSEDKPQDYKKRLSVELTSSLFRTEPMAWNETADLGLDIGAQGEPLGYRQDDPSYRSFHSGGYGQDALGMDPMMEHEMGGHHPGADYPVDGLPDLGHAQDLMDGLPPGDSNQLAWFDTDL
modifications: O-GlcNAc at varying levels (raised by the DS aptamer 3JB8F+12); sites not fully mapped
notes: Endogenous protein detected in fixed cells (PLA) or cell lysate (Co-IP) with an anti-β-catenin antibody; HEK293T is a human cell line; also called endogenous β-catenin
EP300
  binding result: binds
KAT2A (GCN5)
  binding result: binds

B2: T1 with 3' A28 tail (ssRNA)
RNA: GGGAGAAUCACUUACGGAUCCUCGUUAAGUGGCUCUCAGUCGCCCGUAACUCCGAUGCCGAUGCAGCGGCGACAACUGCACCCAAGGCUCGGAAGCUU
[1]
  Kd: 0.0605 µM

B3: T1 (ssRNA)
RNA: GGGAGAAUCACUUACGGAUCCUCGUUAAGUGGCUCUCAGUCGCCCGUAACUCCGAUGCCGAUGCAGCGGCGACAACUGCACCCAAGGCUCGGAAGCUU
[2]
  Kd: ~0.06 µM

B4: bc339 with 3' A28 tail (ssRNA)
RNA: AGCUUCUGGGCGGCGAUGAGAUGACGUGUGCGGUGGUCGAGAGGUACCUUGGGUGAGGGAAGGGAAGGGAGGUUGACCACUGCGUGACUGCCCAGAAGCU
β-catenin
  Kd: 0.016 µM
